Experimental data: article PMC10786891, “Massively parallel profiling of RNA-targeting CRISPR-Cas13d”
Positions count from the first letter of the chain named. Names may count otherwise.

T1: EsCas13d, nuclease-dead (Eubacterium siraeum, UniProt B0MS50, R295A;H300A;R849A;H854A)
T1 sequence: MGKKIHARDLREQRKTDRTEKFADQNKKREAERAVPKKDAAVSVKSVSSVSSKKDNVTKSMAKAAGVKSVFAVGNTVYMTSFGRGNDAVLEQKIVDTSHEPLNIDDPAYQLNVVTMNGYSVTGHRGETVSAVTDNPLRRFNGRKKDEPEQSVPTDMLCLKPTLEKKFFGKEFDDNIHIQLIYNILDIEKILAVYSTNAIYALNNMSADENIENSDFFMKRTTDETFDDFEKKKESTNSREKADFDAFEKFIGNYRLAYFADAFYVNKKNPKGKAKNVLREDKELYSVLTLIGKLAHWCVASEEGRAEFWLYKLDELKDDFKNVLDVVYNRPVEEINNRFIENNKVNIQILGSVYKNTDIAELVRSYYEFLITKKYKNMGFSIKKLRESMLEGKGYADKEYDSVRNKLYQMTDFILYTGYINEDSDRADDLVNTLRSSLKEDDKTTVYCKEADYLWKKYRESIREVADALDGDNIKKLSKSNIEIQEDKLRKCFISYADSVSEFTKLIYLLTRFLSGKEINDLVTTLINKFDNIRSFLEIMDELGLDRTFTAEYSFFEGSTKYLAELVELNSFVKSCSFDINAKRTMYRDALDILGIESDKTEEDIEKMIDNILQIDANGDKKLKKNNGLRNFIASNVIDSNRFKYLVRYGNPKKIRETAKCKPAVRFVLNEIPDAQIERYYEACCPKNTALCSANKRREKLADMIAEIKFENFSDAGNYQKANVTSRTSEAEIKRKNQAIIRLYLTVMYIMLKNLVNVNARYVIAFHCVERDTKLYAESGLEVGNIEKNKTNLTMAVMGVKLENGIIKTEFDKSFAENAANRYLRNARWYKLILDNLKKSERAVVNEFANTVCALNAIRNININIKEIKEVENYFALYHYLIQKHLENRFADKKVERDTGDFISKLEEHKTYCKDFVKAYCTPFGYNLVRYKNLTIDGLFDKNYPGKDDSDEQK

B1: target 1 MT 5'PFS AGA 3'PFS AAG (mixed)
RNA 1: CACCCGUGCAAAAAUGCAGGGGUCUAAAACUGAGCGGAUAACCUCUCUAUGG
RNA 2: GGGAAUGGAUCCACAUCUACGAAUUCAGACCAUAGAGAGGUUAUCCGCUCAAAGAGAUCGGAAGAGCACACGU
B2: target 1 MT 5'PFS AAC 3'PFS AUC (mixed)
RNA 1: B1 RNA 1
RNA 2: B1 RNA 2 with G28A, A29C, A53U, G54C
B3: target 1 MT 5'PFS UUU 3'PFS ACC (mixed)
RNA 1: B1 RNA 1
RNA 2: B1 RNA 2 with A27U, G28U, A29U, A53C, G54C
B4: target 1 MT 5'PFS UAG 3'PFS CUC (mixed)
RNA 1: B1 RNA 1
RNA 2: B1 RNA 2 with A27U, G28A, A29G, A52C, A53U, G54C
B5: target 1 MT 5'PFS GGA 3'PFS UAG (mixed)
RNA 1: B1 RNA 1
RNA 2: B1 RNA 2 with A27G, A52U
B6: target 1 MT 5'PFS GAG 3'PFS AAU (mixed)
RNA 1: B1 RNA 1
RNA 2: B1 RNA 2 with A27G, G28A, A29G, G54U
B7: target 1 MT 5'PFS GGA 3'PFS UAU (mixed)
RNA 1: B1 RNA 1
RNA 2: B1 RNA 2 with A27G, A52U, G54U
B8: target 1 insU 3' of 18,insU 3' of 12 (mixed)
RNA 1: B1 RNA 1
RNA 2: GGGAAUGGAUCCACAUCUACGAAUUCGUACCAUAUGAGAGGUUUAUCCGCUCACCGAGAUCGGAAGAGCACACGU
B9: target 1 MT 5'PFS ACG 3'PFS CGG (mixed)
RNA 1: B1 RNA 1
RNA 2: B1 RNA 2 with G28C, A29G, A52C, A53G
B10: target 1 MT 5'PFS UGG 3'PFS UUG (mixed)
RNA 1: B1 RNA 1
RNA 2: B1 RNA 2 with A27U, A29G, A52U, A53U
B11: target 1 MT 5'PFS UAG 3'PFS CUA (mixed)
RNA 1: B1 RNA 1
RNA 2: B1 RNA 2 with A27U, G28A, A29G, A52C, A53U, G54A
B12: target 1 MT 5'PFS UAG 3'PFS CUG (mixed)
RNA 1: B1 RNA 1
RNA 2: B1 RNA 2 with A27U, G28A, A29G, A52C, A53U
B13: target 1 MT 5'PFS AAC 3'PFS UUC (mixed)
RNA 1: B1 RNA 1
RNA 2: B1 RNA 2 with G28A, A29C, A52U, A53U, G54C
B14: target 1 MT 5'PFS UCG 3'PFS UCA (mixed)
RNA 1: B1 RNA 1
RNA 2: B1 RNA 2 with A27U, G28C, A29G, A52U, A53C, G54A
B15: target 1 MT 5'PFS CCA 3'PFS UCU (mixed)
RNA 1: B1 RNA 1
RNA 2: B1 RNA 2 with A27C, G28C, A52U, A53C, G54U
B16: target 1 MT 5'PFS UCC 3'PFS UCC (mixed)
RNA 1: B1 RNA 1
RNA 2: B1 RNA 2 with A27U, G28C, A29C, A52U, A53C, G54C
B17: target 1 MT 5'PFS AAC 3'PFS AUA (mixed)
RNA 1: B1 RNA 1
RNA 2: B1 RNA 2 with G28A, A29C, A53U, G54A
B18: target 1 MT 5'PFS UGG 3'PFS UUU (mixed)
RNA 1: B1 RNA 1
RNA 2: B1 RNA 2 with A27U, A29G, A52U, A53U, G54U
B19: target 1 MT 5'PFS AAC 3'PFS AUG (mixed)
RNA 1: B1 RNA 1
RNA 2: B1 RNA 2 with G28A, A29C, A53U
B20: target 1 MT 5'PFS CUC 3'PFS CUA (mixed)
RNA 1: B1 RNA 1
RNA 2: B1 RNA 2 with A27C, G28U, A29C, A52C, A53U, G54A
B21: target 1 C2G,C6G (mixed)
RNA 1: B1 RNA 1
RNA 2: B1 RNA 2 with A27G, G28U, C46G, C50G, A52C, A53C
B22: target 1 MT 5'PFS UCC 3'PFS UCA (mixed)
RNA 1: B1 RNA 1
RNA 2: B1 RNA 2 with A27U, G28C, A29C, A52U, A53C, G54A
B23: target 1 MT 5'PFS GGA 3'PFS UAA (mixed)
RNA 1: B1 RNA 1
RNA 2: B1 RNA 2 with A27G, A52U, G54A
B24: target 1 MT 5'PFS GCG 3'PFS UUG (mixed)
RNA 1: B1 RNA 1
RNA 2: B1 RNA 2 with A27G, G28C, A29G, A52U, A53U
B25: target 1 MT 5'PFS UCC 3'PFS UCU (mixed)
RNA 1: B1 RNA 1
RNA 2: B1 RNA 2 with A27U, G28C, A29C, A52U, A53C, G54U
B26: target 1 MT 5'PFS UCG 3'PFS UCC (mixed)
RNA 1: B1 RNA 1
RNA 2: B1 RNA 2 with A27U, G28C, A29G, A52U, A53C, G54C
B27: target 1 MT 5'PFS UGG 3'PFS UUA (mixed)
RNA 1: B1 RNA 1
RNA 2: B1 RNA 2 with A27U, A29G, A52U, A53U, G54A
B28: target 1 insA 3' of 13,insA 3' of 4 (mixed)
RNA 1: B1 RNA 1
RNA 2: GGGAAUGGAUCCACAUCUACGAAUUCGUACCAUAGAGAGAGUUAUCCGCAUCACCGAGAUCGGAAGAGCACACGU
B29: target 1 MT 5'PFS ACG 3'PFS CGU (mixed)
RNA 1: B1 RNA 1
RNA 2: B1 RNA 2 with G28C, A29G, A52C, A53G, G54U
B30: target 1 MT 5'PFS GUG 3'PFS GUU (mixed)
RNA 1: B1 RNA 1
RNA 2: B1 RNA 2 with A27G, G28U, A29G, A52G, A53U, G54U
B31: target 1 MT 5'PFS GGA 3'PFS UAC (mixed)
RNA 1: B1 RNA 1
RNA 2: B1 RNA 2 with A27G, A52U, G54C
B32: target 1 MT 5'PFS UCC 3'PFS UCG (mixed)
RNA 1: B1 RNA 1
RNA 2: B1 RNA 2 with A27U, G28C, A29C, A52U, A53C
B33: target 1 MT 5'PFS CUC 3'PFS CUG (mixed)
RNA 1: B1 RNA 1
RNA 2: B1 RNA 2 with A27C, G28U, A29C, A52C, A53U
B34: target 1 MT 5'PFS GCG 3'PFS UUA (mixed)
RNA 1: B1 RNA 1
RNA 2: B1 RNA 2 with A27G, G28C, A29G, A52U, A53U, G54A
B35: target 1 MT 5'PFS GCG 3'PFS UUU (mixed)
RNA 1: B1 RNA 1
RNA 2: B1 RNA 2 with A27G, G28C, A29G, A52U, A53U, G54U
B36: target 1 insG 3' of 9,insG 3' of 1 (mixed)
RNA 1: B1 RNA 1
RNA 2: B28 RNA 2 with A40G, G41U, U43A, A44G, A50U, U51C, C52A, A53G
B37: target 1 MT 5'PFS GAG 3'PFS AAG (mixed)
RNA 1: B1 RNA 1
RNA 2: B1 RNA 2 with A27G, G28A, A29G
B38: target 1 MT 5'PFS GCG 3'PFS UUC (mixed)
RNA 1: B1 RNA 1
RNA 2: B1 RNA 2 with A27G, G28C, A29G, A52U, A53U, G54C
B39: target 1 MT 5'PFS UUU 3'PFS ACU (mixed)
RNA 1: B1 RNA 1
RNA 2: B1 RNA 2 with A27U, G28U, A29U, A53C, G54U

biological target: T1, EsCas13d, nuclease-dead; experiment: crRNA (strand 1, pre-loaded); Mg2+; 40 mM Tris-HCl pH 7.5, 150 mM NaCl, 6 mM MgCl2, 1 mM DTT, 0.1% Tween-20, 0.2 mg/ml BSA; 25 C; 10 min per concentration, then washed; conditions: tags: His6-TwinStrep-SUMO cleaved; N-terminal SNAP kept (SNAP-Surface 488); label: 3' end held by stalled T7 RNA polymerase

**Q.** For B1, which Kd is on record?
**A.** ~65.5 nM

**Q.** How did the Kd turn out when B2 was run?
**A.** ~25 nM

**Q.** Which Kd does the source give for B3 here?
**A.** ~46.5 nM

**Q.** B4 was tested. Which Kd did it give?
**A.** 29.5 ± 12 nM

**Q.** B5 was tested. Which Kd did it give?
**A.** 17.6 ± 4.05 nM

**Q.** B6 was tested. Which Kd did it give?
**A.** 39 ± 11.5 nM

**Q.** With B7 as the binder, how does the Kd read?
**A.** 11.7 ± 1.5 nM

**Q.** For B8, which Kd is on record?
**A.** 26.1 ± 1.7 nM

**Q.** For B9, which Kd is on record?
**A.** 57 ± 18 nM

**Q.** B10 was tested. Which Kd did it give?
**A.** 85 ± 23 nM

**Q.** With B11 as the binder, how does the Kd read?
**A.** 22.5 ± 4.5 nM

**Q.** For B12, which Kd is on record?
**A.** 22 ± 5 nM

**Q.** B13 was tested. Which Kd did it give?
**A.** 14.1 ± 3.9 nM

**Q.** Which Kd does the source give for B14 here?
**A.** 38.5 ± 13.5 nM

**Q.** With B15 as the binder, how does the Kd read?
**A.** 4.9 ± 2.45 nM

**Q.** How did the Kd turn out when B16 was run?
**A.** 12.1 ± 1.9 nM

**Q.** For B17, which Kd is on record?
**A.** 22 ± 8.5 nM

**Q.** For B18, which Kd is on record?
**A.** 59 ± 20.5 nM

**Q.** Which Kd does the source give for B19 here?
**A.** ~60 nM

**Q.** How did the Kd turn out when B20 was run?
**A.** ~39 nM

**Q.** For B21, which Kd is on record?
**A.** 4.46 ± 0.23 nM

**Q.** How did the Kd turn out when B22 was run?
**A.** ~20 nM

**Q.** For B23, which Kd is on record?
**A.** 21.9 ± 4.9 nM

**Q.** Which Kd does the source give for B24 here?
**A.** 5.38 ± 0.505 nM

**Q.** For B25, which Kd is on record?
**A.** 23 ± 8 nM

**Q.** With B26 as the binder, how does the Kd read?
**A.** 24.5 ± 6.5 nM

**Q.** For B27, which Kd is on record?
**A.** 48.5 ± 10.5 nM

**Q.** Which Kd does the source give for B28 here?
**A.** 3.4 ± 0.5 nM

**Q.** B29 was tested. Which Kd did it give?
**A.** ~34 nM

**Q.** With B30 as the binder, how does the Kd read?
**A.** 17.9 ± 2.75 nM

**Q.** Which Kd does the source give for B31 here?
**A.** 14 ± 6 nM

**Q.** For B32, which Kd is on record?
**A.** 20.6 ± 7.75 nM

**Q.** Which Kd does the source give for B33 here?
**A.** ~27 nM

**Q.** Which Kd does the source give for B34 here?
**A.** 9.05 ± 1.55 nM

**Q.** Which Kd does the source give for B35 here?
**A.** 7.85 ± 1 nM

**Q.** How did the Kd turn out when B36 was run?
**A.** 19.2 ± 2.3 nM

**Q.** How did the Kd turn out when B37 was run?
**A.** ~60 nM

**Q.** How did the Kd turn out when B38 was run?
**A.** 10.8 ± 2.8 nM

**Q.** B39 was tested. Which Kd did it give?
**A.** 21.2 ± 4.1 nM
